Source: US20230355711A1

Target: recombinant SARS-CoV-2 spike protein (S1S2ECD-His; Sino Biological) (SARS-CoV-2) (UniProt P0DTC2)

With “heat-inactivated recombinant human rod domain of vimentin (ΔrhRod) (from UniProt P08670 96-407)” as the substance, how does the Kd read?
Its Kd is 1100 nM.
